Assay results reported in article PMC2918291 (Nature structural & molecular biology, 2010).

Biological target: the molecule itself
Assay: crystal structure

B1: MthK K^+ channel ion conduction pore, S68R V77C mutant (domain or fragment, Methanobacterium thermoautotrophicum)
chain: VPATRILLLVLAVIIYGTAGFHFIEGESWTVSLYWTFVTIATVGYGDYSPRTPLGMYFTCTLIVLGIGTFAVAVERLLEFLI
binding result: binds
